The target of this assay is PA domain 3 (Bacillus anthracis). Description: ELISA.

Results on 1 molecule are retold here after article PMC12502762.

PA domain 3 (Bacillus anthracis), sequence (P13423 517-624 limits assumed): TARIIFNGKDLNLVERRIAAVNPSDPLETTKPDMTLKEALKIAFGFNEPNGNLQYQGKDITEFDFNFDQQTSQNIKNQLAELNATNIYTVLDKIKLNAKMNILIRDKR

B1: antibody 8A7 (antibody, V domains shown)
VH: EVQLLESGGGLVQPGGSLRLSCAASGFSFSSYAMSWVRQAPGTGLEWVSGISGSGDNIYYADSVKGRFTISRDNSKNTVYMQMNSLRAEDTALYYCAKFSGHYGSGSFHLPEYFQHWGQGTLVTVSS
VL: DIQMTQSPATLSASIGDRVTITCRASQSISSWLAWYQQKPGKAPKVLIYKASRLESGVPSRFSGSGSGTEFTLTISSLQPDDFATYYCQQYNTYWTFGQGTKVEIIR
For B1, the EC50 – broadly, the concentration at which the effect is half-maximal – is 0.06 nM.
